B1: TPR 5TU (parent)
chain: GGAUCUUCUCGAUCUAACAAAAAAGACAAAUCUGCCACAAAGCUUGAGAGCAUCUUCGGAUGCAGAGGCGGCAGCCUUCGGUGGCGCGAUAGCGCCAACGUUCUCAACUAUGACACGCAAAACGCGUGCUCCGUUGAAUGGAGUUUAUCAUG

Variants at the floor of the assay were thinned out.

This series covers variants of B1. The series can be described thus: polymerase ribozyme fitness, log enrichment relative to wild type (log ratio); higher = more active; in vitro selection for triplet polymerase activity. The gist of the method:
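One round of in vitro selection, in triplicate, was applied to PCR-built, transcribed mutant libraries of each subunit of a heterodimeric triplet polymerase ribozyme. The steps were annealing with a biotinylated primer, partner subunit and triplets, incubation frozen at −7 °C, gel excision of extended constructs, streptavidin-bead capture and RT-PCR. Fitness is the logarithm, base 2, of genotype enrichment over wild-type enrichment from inverse-variance-weighted replicate averages of Illumina-sequenced inputs and outputs, keeping genotypes with ≥10 input reads and ≥1 read per output.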
Turning to GGAUCUUCUCGAUCUAACAAAAAAGACAAAUCUGCCACAAAGCUUGAGCUCAGCUUCGGAUGCAGAGGCGGCAGCCUUCGCUGGCGUGCUAGCGCCAACGUUCUCUACUAUGACACGCAAAACGCGUGCUCCGUUGAAUGGAGUUUAUCCUG [A49C G50U U53G G81C C87U A89C A106U A150C], the “polymerase ribozyme fitness (log ratio)” value was at most -4.2. Take GGAUCUUCUCGAUCUAACAAAAAAGACAAAUCUGCCACAAAGCUUGAGCCCAUGUUCGGAUGCAGAGGCAGCAGCCUUCGGUGGCGGGGUAGCGCCAACGUUUUCAACUAUGACACGCAAAACGCGUGCUCCGUUGAAUGGAGUUUAUCAUG [A49C G50C C54G G70A C87G A89G C103U]: the “polymerase ribozyme fitness (log ratio)” value was at most -4.2. The result for GGAUCUUCUCGAUCUAACAAAAAAGACAAAUCUGCCACAAAGCUUGAGGGCAUCUUCGGAUGCAGAGGCGGCAGCCUUCGGUGGCGCGAUAGCGCCAACGUUCUCAACUAUGACACGCCAAACGCGUGCUCCGUUGAAUGGAGUUUAUCAUG [A49G A119C] reads -0.604; that for GGAUCUUCUCGAUCUAACAAAAAAGACAAAUCUGCCACAAAGCUUGAGCGCAUCUUCGGAUGCAGAGGCGGCAGCCUUCUGUGGCGCGAUAGCGCCAACGUUCUCAACUAUGACACGCAAAACGCGUGCUCCGUUGAAUGGAGUUUAUCAUG [A49C G80U], -4.02; that for GGAUCUUCUCGAUCUAACAAAAAAGACAAAUCUGCCACAAAGCUUGAGCGCAUCUUCGGAUGCAGAGGCGGCAGACUUCGGUGGCUCGAUAGCGCCAACGUUCUCAACUAUGACACGCAAAACGCGUGCUCCGUUGAAUGGACUUUAUCAUG [A49C C75A G86U G143C], -4.19. In the case of GGAUCUUCUCGAUCUAACAAAAAAGACAAAUCUGCCACAAAGCUUGAGCGCAUCUUCGGAUGCAGAGGCGGCAGCCUUCGGUGGCGCUAUAGCGCCAACGUUCUCUACUAUGACACGCAAAACGCGUGCUCCGUUGAAUGGAGUUUAUCAUG [A49C G88U A106U], the “polymerase ribozyme fitness (log ratio)” value was at most -4.2. As for GGAUCUUCUCGAUCUAACAAAAAAGACAAAUCUGCCACAAAGCUUGAGGGCAUCUUCGGAUGCAGAGGCGGCAGCCUUCGGUGGCGCGAUUGCGCCAACGUUCUCAACUAUGACACGCAAAACUCGUGCUCCGUUGAAUGCAGUUUAGCAUG [A49G A91U G124U G141C U148G], the “polymerase ribozyme fitness (log ratio)” value is at most -4.2. Consider GGAUCUUCUCGAUCUAACAAAAAAGACAAAUCUGCCACAAAGCUUGAGCGCAUCUUCGGAUGCAGAGGCGGCAGCGUUCGGUGGCGCGAUAGCGUCAACGUUCUCAACUAUGAAACGCAAAACGCGUGCUCCGUUGAAUGGAUUUUAUCAUG [A49C C76G C95U C114A G143U], for which the “polymerase ribozyme fitness (log ratio)” value is at most -4.2. Regarding GGAUCUUCUCGAUCUAACAAAAAAGACAAAUCUGCCACAAAGCUUGAGCGCAUCUUCGGAUGCAGAGGCGCCAGCCUUCGGUGGCGCGAUAGCGCCAACGUUCUCAACUAUGACACGCAAAACGCGUGCUCCGUUGAAUGGAGUUUAUCAUG [A49C G71C], the “polymerase ribozyme fitness (log ratio)” value was at most -4.2. The value for GGAUCUUCUCGAUCUAACAAAAAAGACAAAUCUGCCACAAAGCUUGAGCGCAUCUUCGGAUGCAGAGGCGGCAGCCUUCGGUGGCGCGAUAGCGCCAACGUUGUCAACUAUGACGCGCAAAACGCGUGCUCCGUUGAAUGGAGUUUAUCAUG [A49C C103G A115G] was at most -4.2; that for GGAUCUUCUCGAUCUAACAAAAAAGACAAAUCUGCCACAAAGCUUGAGGGCAUCUUCGGUUGCAGAGGCGGCAGCCUCCGGUGGCGCGAUAGCGACAACGUUCUCAACUAUGACACGCAAAACGCGUGCUCCGUUGAAUGGCGUUUAUCAUG [A49G A60U U78C C95A A142C] was at most -4.2; that for GGAUCUUCUCGAUCUAACAAAAAAGACAAAUCUGCCACAAAGCUUGAGCUCAUCUUCGGAUGCCGAGGCGGCUGCCUUCGGUGGCGAGAUAGCGCCAACGUUCUCAACUAUGACGCGGAAAACGCGUGCUCCGUUGAAUGGAGUUUAUCAUG [A49C G50U A64C A73U C87A A115G C118G] was at most -4.2. The value for GGAUCUUCUCGAUCUAACAAAAAAGACAAAUCUGCCACAAAGCUUGAGCGCAUCUUCGGAUGCAGAGGCGGCAGCCUUCGUUGGCGCGAUAGGGCCAACGUUCUCAACUAUGACACGCAAAACGCGUGCUCCGUUGAAUGGAGUUUAUCAUG [A49C G81U C93G] was at most -4.2; that for GGAUCUUCUCGAUCUAACAAAAAAGACAAAUCUGCCACAAAGCUUGAGGGCGUCCUCGGAUGCAGAGGCGGCAGCCUUCGGUGACGCGAUCGCGCCAAGGGUCUCAACUAUGACACGCAAAACGCGUGCUCCGUUGAAUGGAGUUUAUCAUG [A49G A52G U55C G84A A91C C99G U101G] was at most -4.2. Turning to GGAUCUUCUCGAUCUAACAAAAAAGACAAAUCUGCCACAAAGCUUGAGCGCAUCUUCGGAUGCAGAGGCUGCAGCCUUCGGUGGCGCGAUAGCGCCUACGUUCUCAGCUAUGACACGCAAAACGCGUUCUCCGUUAAAAGGAGUUUAUCAUG [A49C G70U A97U A107G G128U G136A U139A], the “polymerase ribozyme fitness (log ratio)” value was at most -4.2.

In the case of GGAUCUUCUCGAUCUAACAAAAAAGACAAAUCUGCCACAAAGCUUGAGCGCAUCUUCAGAUGCAGAGGCGGCAGCCUUCGGUGGCGCGAUAGCGCCAACGUUCUCAACUAUGACACGCAAAACGCGUGCUCCGUUGAAUGGAGUUUAUCAUG [A49C G58A], the “polymerase ribozyme fitness (log ratio)” value is -4.08. The value for GGAUCUUCUCGAUCUAACAAAAAAGACAAAUCUGCCACAAAGCUUGAGCGCAUCUUCGGAUGCAGAGGCGGCAGCCUUCGGUGGCGGGAUAGCGCCAACGUUCUCAACUAUGACACGCAAAACGCGUGCUCCGUUGAAUGGAGUUUAUCAUG [A49C C87G] was at most -4.2; that for GGAUCUUCUCGAUCUAACAAAAAAGACAAAUCUGCCACAAAGCUUGAGCGCAUCUUCGGAUGCAGAGGCGGCAGCCUUCGGUGGCGCGAUAGUGCCAACGUUCUCAACUAUGACACGCAAAACGCGUGCUCCAUUGAAUGGAGUUUAUCAUG [A49C C93U G133A] was at most -4.2. On to GGAUCUUCUCGAUCUAACAAAAAAGACAAAUCUGCCACAAAGCUUGAGCACAUCUUCGUAUGCAGAGGGGGCAGCCUUCGGUGGCGCGAUAGUGCCAAUGUUCUCAACUAGGACACGCAAAACGCGUGCUCCGUUGAAUGGAGUUUAUCUUG [A49C G50A G59U C69G C93U C99U U111G A150U], for which the “polymerase ribozyme fitness (log ratio)” value is at most -4.2.

For the origin of these results see the RNAGym collection of RNA variant scans (doi:10.1073/pnas.2313332121).
